Legend:
[1] = target: Bacillus thuringiensis tRNA^His guanylyltransferase (Thg1)-like protein (TLP) (Bacillus thuringiensis); test: crystal structure; BtTLP co-crystallised with ~2 mM GTP; tetragonal crystals, space group P4_(1), 2.96 Å; four monomers per asymmetric unit
[2] = target: Bacillus thuringiensis tRNA^His guanylyltransferase (Thg1)-like protein (TLP) (Bacillus thuringiensis); test: crystal structure; BtTLP co-crystallised with ~1 mM ATP; orthorhombic crystals, space group C222_(1), 2.35 Å; four molecules per asymmetric unit (two dimers)

“Bacillus thuringiensis tRNA^His guanylyltransferase (Thg1)-like protein (TLP) (enzyme)” was tested. Which stoichiometry N [1] did it give?
The stoichiometry N was 4.

What about the stoichiometry N [2] of the same substance?
Its stoichiometry N is 4.

From PMC3701042, “Structural Studies of a Bacterial tRNA^HIS Guanylyltransferase (Thg1)-Like Protein, with Nucleotide in the Activation and Nucleotidyl Transfer Sites” (PLoS ONE, 2013)
